Laboratory results from patent US20030148417A1.

Legend:
Experiment in all cases: cell-based or functional assay
[1] = molecular target: recombinant TcAP2 protein (aspartic endoproteinase from Theobroma cacao, secreted by Yarrowia lipolytica clone pCY330-33) (Theobroma cacao)
[2] = molecular target: native purified aspartic endoproteinase from cacao beans (TcAP2, 30.5 kDa polypeptide), size exclusion pool #57-64 (Theobroma cacao)
[3] = molecular target: bovine haemoglobin (bovine) (UniProt P01966)
Sequence of bovine haemoglobin (bovine) (P01966 2-142, chain 1 of 2): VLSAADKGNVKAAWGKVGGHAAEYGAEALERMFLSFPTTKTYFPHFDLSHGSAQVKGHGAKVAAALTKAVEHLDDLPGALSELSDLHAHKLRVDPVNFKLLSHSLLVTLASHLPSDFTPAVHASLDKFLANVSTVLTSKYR
Sequence of bovine haemoglobin (bovine) (P02070 whole entry, chain 2 of 2, further chain): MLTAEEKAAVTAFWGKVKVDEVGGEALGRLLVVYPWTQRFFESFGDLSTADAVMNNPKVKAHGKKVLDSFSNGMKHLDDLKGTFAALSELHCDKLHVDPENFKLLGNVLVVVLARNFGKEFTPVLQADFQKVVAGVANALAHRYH

Sequence of native purified aspartic endoproteinase from cacao beans (TcAP2, 30.5 kDa polypeptide), size exclusion pool #57-64 (Theobroma cacao) (chain, as listed by the source limits assumed, form in doubt): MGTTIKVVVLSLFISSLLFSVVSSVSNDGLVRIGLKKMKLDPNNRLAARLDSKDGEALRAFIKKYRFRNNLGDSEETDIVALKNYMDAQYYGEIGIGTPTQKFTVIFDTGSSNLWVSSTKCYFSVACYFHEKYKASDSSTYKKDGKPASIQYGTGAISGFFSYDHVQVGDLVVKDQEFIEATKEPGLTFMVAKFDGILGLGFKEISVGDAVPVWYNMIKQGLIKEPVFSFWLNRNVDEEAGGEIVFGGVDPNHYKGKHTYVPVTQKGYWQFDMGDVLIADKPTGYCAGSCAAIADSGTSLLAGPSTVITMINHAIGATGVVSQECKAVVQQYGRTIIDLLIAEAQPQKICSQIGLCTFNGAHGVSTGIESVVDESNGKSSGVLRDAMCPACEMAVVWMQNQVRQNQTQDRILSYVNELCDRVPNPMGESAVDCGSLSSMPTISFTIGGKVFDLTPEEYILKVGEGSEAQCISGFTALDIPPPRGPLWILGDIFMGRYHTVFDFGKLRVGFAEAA

| pepstatin insensitive activity (hydrolysis of bovine haemoglobin, 2 µM pepstatin), percent of uninhibited activity [1] | Remaining Activity % (hydrolysis of bovine hemoglobin, 0.002 mM Pepstatin A) [2] | hydrolysis of bovine haemoglobin, activity at pH 3 without inhibitor (taken as 100%) (pmoles L-leucine produced/min/mg protein) [3] | Substance |
| --- | --- | --- | --- |
| 6.65% | 0% | – | Pepstatin A (peptide) |
| – | – | 28.8 | recombinant TcAP2 protein (aspartic endoproteinase from Theobroma cacao, secreted by Yarrowia lipolytica clone pCY330-33) (enzyme) |
